Patent US12422438B2, “Means and methods for single molecule peptide sequencing” (VIB VZW, priority 2017, dated 2025)

Columns and labels:
[1] = target: T1, T. aquaticus aminopeptidase T (Thermus aquaticus, UniProt P23341); test: Aminopeptidase assay with different amino acid p-nitroanilide substrates at 40° C. and 80° C.; type: biochemical; details: FIG. 11
T1 construct: 6xHis (C); made in house; host or cells: E. coli BL21(DE3), pET24b(+)
T1 sequence (P23341 with tags, fused parts or gaps): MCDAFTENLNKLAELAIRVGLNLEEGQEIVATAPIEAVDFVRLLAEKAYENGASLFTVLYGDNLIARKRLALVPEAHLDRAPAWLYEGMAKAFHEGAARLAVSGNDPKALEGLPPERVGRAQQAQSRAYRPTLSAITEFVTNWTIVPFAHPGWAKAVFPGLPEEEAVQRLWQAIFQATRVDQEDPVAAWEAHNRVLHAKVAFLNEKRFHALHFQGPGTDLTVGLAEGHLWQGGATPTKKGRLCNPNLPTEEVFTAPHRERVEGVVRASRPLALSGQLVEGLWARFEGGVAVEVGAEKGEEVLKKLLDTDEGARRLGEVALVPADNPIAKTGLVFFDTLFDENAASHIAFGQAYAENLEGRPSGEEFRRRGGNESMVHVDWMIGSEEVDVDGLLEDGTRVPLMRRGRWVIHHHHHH
Experimental: FIG. 11. Aminopeptidase assay with different amino acid p-nitroanilide substrates. Enzyme and substrate (1.5 mM) were incubated for 2 h at 40° C. or 80° C. in PBS, after which the released p-nitroanilide was quantified by measuring the absorbance at 405 nm.
As described herein and in line with the invention described in current application, the activity differs between different amino acids. At 80° C., the panel of amino acid substrates can be roughly divided in fast-cleaved (L, M, Y, R, F) and slow-cleaved (D, P) substrates. However, at 40° C. it seems like the panel is divided in fast-cleaved (Y, R) and slow-cleaved (D, P), and substrates that lie in between (L, M, F). […] Finally, TagAPT is not only active in the p-nitroanilide assay. […] The N-terminal amino acid from peptides with proline at the second position is not easily cleaved since peptide bonds adjacent to the amino acid proline are resistant to cleavage by most peptidases (Iyver et al. 2015 FEBS Open Bio. 2015 Apr. 2; 5:292-302). In contrast to what Is stated in Minagawa et al (1988 Agricultural and Biological Chemistry 52:1755-1763) we show here that T. aquaticus aminopeptidase T can cleave N-terminal amino acids even when proline is at the second position. This surprising finding greatly enhances the generic use of Tag-APT in the method and uses disclosed in current application and in single molecule peptide sequencing in general.

[2] = Organic solvent tolerance of aminopeptidase T, activity with L-leucine-p-nitroanilide substrate; type: biochemical
Experimental: (§1) FIG. 12. Organic solvent tolerance of aminopeptidase T from T. aquaticus. A. The activity of aminopeptidase T was measured with L-leucine-p-nitroanilide substrate. Enzyme and substrate were incubated for 3 h at 40° C. in 50 mM TrisHCl (pH 8) containing different concentrations of the organic solvents acetonitrile (ACN), methanol (MeOH) and ethanol (EtOH). B. Circular dichroism analysis of aminopeptidase T secondary structure in 0% versus 50% MeOH (in 10 mM dipotassium phosphate buffer (K2HPO4)). C. Enzyme activity in varying concentrations of MeOH in buffer (50 mM TrisHCl, pH 8) versus deionized water (MilliQ).
(§2) It is well-known in the art that this can be achieved by solvents (such as methanol) or high temperatures. When these harsh conditions are needed, the aminopeptidases used should tolerate solvents and/or high temperatures. […] At higher organic solvent concentrations, activity can still be detected, albeit lower. […] Furthermore, the enzyme appears to be fully active in deionized (MS grade) water, which might be advantageous when the enzyme will be used with ultra-sensitive chip technology (e.g. electrical biosensor such as field effect transistors) (FIG. 12C).

[3] = Circular dichroism analysis of aminopeptidase T secondary structure; type: physicochemical; details: 0% methanol versus 50% methanol, 10 mM K2HPO4
Experimental: as §1, §2

[4] = Peptidase assay with L-leucine-p-nitroaniline of purified enzyme; type: biochemical; details: 70° C., PBS buffer
Experimental: A peptidase assay with L-leucine-p-nitroaniline (140 μl PBS buffer, 30 μl 24 mM L-leucine-p-nitroaniline in MeOH and 10 μl purified Tag-APT) confirmed the presence of the active (amino) peptidase, with thermophilic properties (activity at Taq optimum of 70° C.) (FIG. 8).

[5] = L-leucine-p-nitroanilide activity check after labeling with maleimide-DyLight650; type: biochemical; details: N-terminal cysteine labeled with DyLight650
Description: FIG. 13. Site-specific fluorescent labeling of aminopeptidase T. A. SDS-PAGE analysis of aminopeptidase T after labeling the N-terminal cysteine with an equimolar and a 1×, 10×, 100× and 1000× molar excess of maleimide-DyLight650. Aminopeptidase T was visualized with fluorescence (DyLight650 label) and coomassie (total protein). B. Aminopeptidase T activity check with L-leucine-p-nitroanilide after labeling with maleimide-DyLight650.
Recombinant Taq aminopeptidase containing an extra N-terminal cysteine, was incubated overnight with the fluorescent maleimide-DyLight650 probe in the presence of the reducing agent TCEP (10 mM). Maleimide-DyLight650 was added in equimolar concentration, and in 10×, 100× and 1000× excess molar concentration. After separating the aminopeptidase with SDS-PAGE, it was visualized using a Coomassie stain, as well as with fluorescence to evaluate protein labeling with DyLight650.

B1: aminopeptidase T from T. aquaticus: aminopeptidase T from Thermus aquaticus, Cys added at the N-terminus and 6×His at the C-terminus, SEQ ID No. 8 (protein)
chain: T1 sequence (P23341 with tags, fused parts or gaps)
modifications: labeled TaqAPT
cleavage of dipeptides with a proline at the second position [1]: cleaves dipeptides even with a proline at the second position
acetonitrile concentration up until which enzyme remains completely active ([2]; acetonitrile, 3 h at 40° C., 50 mM TrisHCl (pH 8)): ≤ 33%
enzyme activity in deionized (MS grade) water ([2]; deionized water (MilliQ) versus buffer): fully active
ethanol concentration up until which enzyme remains completely active ([2]; ethanol, 3 h at 40° C., 50 mM TrisHCl (pH 8)): ≤ 33%
methanol concentration up until which enzyme remains completely active ([2]; methanol, 3 h at 40° C., 50 mM TrisHCl (pH 8)): ≤ 50%
structural differences by circular dichroism (CD) [3]: no structural differences were observed
peptidase activity with L-leucine-p-nitroaniline [4]: active
function after labeling with maleimide-DyLight650 [5]: does not jeopardize its function
